# Values of other authors, collected in article PMC6959264.
# Legend:
# Asp212 = Asp212 (UniProt position 225, LFMVLDVSAKV)
# Asp85 = Asp85 (UniProt position 98, WARYADWLFTT)
# Asp96 = Asp96 (UniProt position 109, PLLLLDLALLV)
# Asp74 = Asp74 (UniProt position 74, WARYIDWVITT); conditions: original (unphotolyzed, dark) state implied
Substance,pKa (Asp212),pKa (Asp85),pKa (Asp96),pKa (Asp74)
Bacteriorhodopsin (BR) (Halobacterium salinarum),<2.5,2.6,>12.0,
Rubrobacter xylanophilus rhodopsin (RxR) (Rubrobacter xylanophilus (DSM 9941)),,,,1.3
